Source: the supplement of paper PMC9732359
± gives the uncertainty stated by the source.

Test: protein stability index of a GFP-peptide fusion (yeast GPS) (PSI 1-4); higher = more stable; sorted into four equal gates, so the index is relative within each strain
How it was run: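 Tiled 17-residue peptides from yeast proteins were fused downstream of GFP on a plasmid that also expresses Cherry, and the pooled library was carried in yeast. Mid-log cultures grown in leucine-free medium were sorted into four equal gates by GFP/Cherry fluorescence ratio. Plasmids from each gate were PCR-amplified and Illumina-sequenced, and reads were assigned to strains by barcodes. Each peptide's protein stability index is the sum, over gates, of the gate's read frequency multiplied by its gate number.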

| Sequence | protein stability index (doa10∆) | protein stability index (pdr5∆) | protein stability index (san1∆) | protein stability index (ubr1∆) |
| --- | --- | --- | --- | --- |
| KMENFEFLPLSLHILMI [SRB8] | 2.79 ± 0.077 | 2.8 ± 0.054 | 1.91 ± 0.076 | 2.85 ± 0.06 |
| SVWKPIAAIIGRLNTLV [IRR1] | 1.68 ± 0.03 | 1.56 ± 0.026 | 2.04 ± 0.058 | 1.63 ± 0.024 |
| KLDSKKILPTDIQLKNL [SRP68] | 2.74 ± 0.1 | 2.78 ± 0.078 | 2.79 ± 0.061 | 2.69 ± 0.059 |
| IGQFLEPIDQNTGIVSS [RPT3] | 2.48 ± 0.2 | 2.82 ± 0.11 | 2.14 ± 0.17 | 2.85 ± 0.066 |
| AAKLRTLDYAERHGYIR [RPL2A] | 3.38 ± 0.11 | 3.27 ± 0.14 | 2.9 ± 0.16 | 3.37 ± 0.13 |
| ESLYDLIEFQPSQGVHY [MED6] | 2.84 ± 0.078 | 2.87 ± 0.061 | 2.91 ± 0.051 | 2.7 ± 0.051 |
| ERLDKDKDRDTRRKRRQ [SNF5] | 2.82 ± 0.13 | 3.27 ± 0.21 | 2.9 ± 0.11 | 3.46 ± 0.13 |
| LVRDSKPSKPFNVDDVL [MED8] | 2.48 ± 0.055 | 2.57 ± 0.044 | 2.46 ± 0.051 | 2.5 ± 0.047 |
| QSTPVLLNHGERAELET [RPN1] | 3.03 ± 0.13 | 2.31 ± 0.12 | 2.02 ± 0.16 | 2.66 ± 0.078 |
| LHKFLTKWGLINYQVDS [SWI3] | 2.46 ± 0.17 | 2.71 ± 0.12 | 2.03 ± 0.078 | 2.12 ± 0.072 |
| NGDEGDDENEPKRKRRL [YOR098C/NUP1] | 3.38 ± 0.11 | 3.24 ± 0.14 | 3.17 ± 0.083 | 3.06 ± 0.071 |
| KIDLLSGQFYFRNPTPL [RGR1] | 2.67 ± 0.22 | 3.03 ± 0.15 | 3.12 ± 0.076 | 2.82 ± 0.074 |
| MKYAVSKTSENKVSNTV [SIR2] | 2.99 ± 0.13 | 3.16 ± 0.062 | 3.15 ± 0.091 | 2.98 ± 0.052 |
| FSKQCLISNAIYGKKTM [ECM29] | 1.15 ± 0.098 | 1.95 ± 0.077 | 1.63 ± 0.14 | 1.82 ± 0.067 |
| SALEQAIIYQRGKDGKL [YGL100W/SEH1] | 2.93 ± 0.073 | 3.22 ± 0.051 | 3.15 ± 0.047 | 3 ± 0.06 |
| STKSNKAKNPLTHSTPK [RPL8B] | 2.33 ± 0.069 | 2.83 ± 0.059 | 2.94 ± 0.058 | 2.73 ± 0.071 |
| ISSGLLYLQDSNDKFVH [SRB8] | 1.94 ± 0.087 | 1.48 ± 0.13 | 1.25 ± 0.15 | 1.14 ± 0.07 |
| DHYESNQLVAKLLLLRI [SRB8] | 2.84 ± 0.065 | 2.74 ± 0.085 | 2.84 ± 0.1 | 2.34 ± 0.038 |
| EHFSHFGHIMEDFQVLR [YDL088C/ASM4] | 3.03 ± 0.063 | 2.92 ± 0.045 | 2.54 ± 0.059 | 2.44 ± 0.045 |
| LGNGVACDPSEIEPILM [RGR1] | 2.06 ± 0.075 | 2.19 ± 0.067 | 3.34 ± 0.071 | 2.91 ± 0.063 |
| AASLGDMVMATVKKGKP [RPL23A] | 2.6 ± 0.1 | 1.96 ± 0.087 | 3.5 ± 0.099 | 2.91 ± 0.078 |
| FSTNVKDEIVLSGNSVE [RPL9A] | 2.03 ± 0.13 | 2.18 ± 0.13 | 2.34 ± 0.13 | 2.59 ± 0.054 |
| PSNSTTTLHGPGFQLPN [SRB8] | 3 ± 0.1 | 2.85 ± 0.096 | 2.71 ± 0.066 | 2.91 ± 0.058 |
| GLKFASFIFQYYGLVID [PRP8] | 1.73 ± 0.2 | 1.27 ± 0.18 | 1.14 ± 0.27 |  |
| NIVKLCFVHRYKDVSDL [IRR1] | 2.68 ± 0.084 | 2.71 ± 0.059 | 2.87 ± 0.055 | 2.89 ± 0.058 |
| REMRRKVYAQLLESYKT [RPN7] | 2.36 ± 0.081 | 2.96 ± 0.14 | 2.32 ± 0.18 | 2.7 ± 0.09 |

| Sequence | protein stability index (doa10∆) | protein stability index (pdr5∆) | protein stability index (san1∆) | protein stability index (ubr1∆) |
| --- | --- | --- | --- | --- |
| QTMQLIKNVQDLLILTR [SRB6] | 1.51 ± 0.087 | 1.8 ± 0.091 |  | 2.09 ± 0.086 |
| RRSKMNPLWNAIIVAGV [PRE4] | 2.87 ± 0.097 | 3.25 ± 0.12 | 2.86 ± 0.097 | 2.93 ± 0.074 |
| QDLPKINDKRANLMLVM [SRB4] | 1.91 ± 0.073 | 1.88 ± 0.068 | 1.83 ± 0.14 | 1.73 ± 0.063 |
| PLARNYIKSMDLISKKT [RPR2] | 2.78 ± 0.065 | 3.01 ± 0.063 | 2.77 ± 0.054 | 2.94 ± 0.039 |
| IFALCIYNSTDSNSEIL [YML103C/NUP188] | 1.39 ± 0.17 | 2.19 ± 0.075 | 1.87 ± 0.14 | 1.95 ± 0.086 |
| TRSKRLSQVYPTLVRSV [CSN12] | 1.72 ± 0.12 | 2.1 ± 0.22 |  |  |
| ILQILDQDELVQPPLDK [SWP82] | 2.58 ± 0.068 | 2.68 ± 0.11 | 2.62 ± 0.074 | 2.48 ± 0.11 |
| QFELLSRRWRQRKNIQS [BRR2] | 1.44 ± 0.08 | 1.92 ± 0.056 | 1.55 ± 0.088 | 1.65 ± 0.044 |
| KKMMNTSDSESTLYKYL [SWI3] | 2.94 ± 0.079 | 2.87 ± 0.075 | 2.79 ± 0.083 | 2.75 ± 0.05 |
| LKIIHDTFRWVGKKSAP [RPO31] | 2.51 ± 0.15 | 2.43 ± 0.21 | 2.35 ± 0.2 | 3.14 ± 0.11 |
| GRYLLTPPDDLHPYVPS [SRB8] | 2.36 ± 0.057 | 2.41 ± 0.056 | 2.55 ± 0.061 | 2.66 ± 0.039 |
| HDEKTLAPSKHQPITSE [SIR4] | 2.08 ± 0.088 | 2.27 ± 0.1 | 2.33 ± 0.12 | 2.27 ± 0.22 |
| AVVVGTGNIKHEDLVNS [COR1] | 3.05 ± 0.11 | 2.79 ± 0.12 | 2.93 ± 0.077 | 2.71 ± 0.11 |
| DEIHIPAPSKPVIDYEL [BRR2] | 3.19 ± 0.073 | 3.08 ± 0.077 | 2.88 ± 0.059 | 2.78 ± 0.061 |
| THSKLFADKKRDCIDIS [PRP8] | 3.45 ± 0.095 | 3.2 ± 0.077 | 3.18 ± 0.061 | 3.38 ± 0.074 |
| KPSKPFNVDDVLKFTFT [MED8] | 3.1 ± 0.061 | 2.83 ± 0.051 | 3.03 ± 0.034 | 2.74 ± 0.039 |
| RKYDLFQNLELETEQLS [SMC2] | 3.21 ± 0.073 | 3.1 ± 0.076 | 1.99 ± 0.17 | 2.17 ± 0.059 |
| EEAKEESDDDMGFGLFD [RPP1A] | 3.09 ± 0.053 | 3.15 ± 0.061 | 3.22 ± 0.028 | 3.26 ± 0.045 |
| KQIVHDSGRGAPLAKVV [RPL2A] | 2.16 ± 0.22 | 2.16 ± 0.18 |  | 2.41 ± 0.17 |
| LRDYTTVPRIVQLLSKS [RPN2] | 1.62 ± 0.046 | 1.98 ± 0.053 | 2.26 ± 0.1 | 1.73 ± 0.045 |
| TFEIPQAHEIVIPSYSK [SWI3] | 2.43 ± 0.095 | 2.37 ± 0.07 | 2.39 ± 0.065 | 2.36 ± 0.064 |
| RKWMEEKADYERELISN [YIL149C/MLP2] | 3.23 ± 0.045 | 3.35 ± 0.086 | 3.11 ± 0.04 | 3.31 ± 0.063 |
| SFLEKPKFAIQDNHHIT [YMR129W/POM152] | 2.89 ± 0.074 | 2.81 ± 0.081 | 2.81 ± 0.051 | 2.76 ± 0.089 |
| DAKSTPLRLRLYDNFVS [RPN9] | 3.3 ± 0.083 | 3.22 ± 0.088 | 3.21 ± 0.063 | 2.87 ± 0.082 |
| DLIHKSEAFPSLQSCSV [SMC4] | 2.53 ± 0.085 | 2.32 ± 0.061 | 2.47 ± 0.067 | 2 ± 0.041 |
